Source: publication PMC11257959, “Structural basis of the histone ubiquitination read–write mechanism of RYBP–PRC1” (Nature Structural & Molecular Biology, 2024)
Substitutions are numbered along the chain they refer to. Names may count otherwise.

B1: human RYBP, full length (natural protein, UniProt Q8N488 1-228, looked up)
chain: MTMGDKKSPTRPKRQAKPAADEGFWDCSVCTFRNSAEAFKCSICDVRKGTSTRKPRINSQLVAQQVAQQYATPPPPKKEKKEKVEKQDKEKPEKDKEISPSVTKKNTNKKTKPKSDILKDPPSEANSIQSANATTKTSETNHTSRPRLKNVDRSTAQQLAVTVGNVTVIITDFKEKTRSSSTSSSTVTSSAGSEQQNQSSSGSESTDKGSSRSSTPKGDMSAVNDESF
notes: In the cryo-EM sample it stood as a subunit of vPRC1; residues 23-58 were built; source: High Five insect cells (baculovirus), purified (Ni-NTA, His tag cleavage, reverse Ni-NTA); not shown: His6, N-terminal, cleaved
B2: RYBP_(T31A/F32A) (natural protein, human, UniProt Q8N488 1-228, looked up)
chain: B1 chain with T31A, F32A
notes: source: High Five insect cells (baculovirus), purified following the same procedure as the wild-type protein; not shown: His6, N-terminal, cleaved
B3: RYBP_(R47A/R53A/R56A) (natural protein, human, UniProt Q8N488 1-228, looked up)
chain: B1 chain with R47A, R53A, R56A
notes: as for B2
B4: human BMI1, full length (natural protein, UniProt P35226 1-326, looked up)
chain: MHRTTRIKITELNPHLMCVLCGGYFIDATTIIECLHSFCKTCIVRYLETSKYCPICDVQVHKTRPLLNIRSDKTLQDIVYKLVPGLFKNEMKRRRDFYAAHPSADAANGSNEDRGEVADEDKRIITDDEIISLSIEFFDQNRLDRKVNKDKEKSKEEVNDKRYLRCPAAMTVMHLRKFLRSKMDIPNTFQIDVMYEEEPLKDYYTLMDIAYIYTWRRNGPLPLKYRVRPTCKRMKISHQRDGLTNAGELESDSGSDKANSPAGGIPSTSSCLPSPSTPVQSPHPQFPHISSTMNGTSNSPSGNHQSSFANRPRKSSVNGSSATSSG
notes: In the cryo-EM sample a subunit of vPRC1; residues 3-107 were built; also called BIM1; source: High Five insect cells (baculovirus), coexpressed with RING1B, purified; not shown: His6, C-terminal, kept

Assays:
[1] = molecular target: T1, human ubiquitin (human, UniProt P0CG47 1-76, conjugated to H2A); assay: cryo-EM structure; vPRC1:Nuc_(H2Aub1); Nuc_(H2Aub1)/vPRC1 ratio of 1:5 in UB buffer, 1 h at 4 °C; biotinylated nucleosomes bound to streptavidin-coated grids, two additional washes; settings: both partners purified
T1 construct: human ubiquitin, the cut product of the precursor; Stood as the ubiquitin moiety of H2Aub1 in the nucleosome; source: bought: Boston Biochem; conjugated to H2A of the nucleosome in vitro

[2] = molecular target: T2, RING1B:BMI1 full-length heterodimer (human, UniProt Q99496 1-336; P35226 1-326); assay: SEC; purified RYBP mixed with purified RING1B:BMI1 at a 1:1 molar ratio, cation exchange, then SEC in 25 mM Tris-HCl pH 7, 150 mM NaCl, 10% glycerol, 2 mM DTT; settings: both partners purified
T2 construct: also called RING1B:BMI1 dimer; source: High Five insect cells (baculovirus, coexpressed from one vector), purified (Ni-NTA, twin strep-tag cleavage, SEC); not shown: twin strep-tag, N-terminal, cleaved; His6, C-terminal, kept
T2 sequence (looked up) 1: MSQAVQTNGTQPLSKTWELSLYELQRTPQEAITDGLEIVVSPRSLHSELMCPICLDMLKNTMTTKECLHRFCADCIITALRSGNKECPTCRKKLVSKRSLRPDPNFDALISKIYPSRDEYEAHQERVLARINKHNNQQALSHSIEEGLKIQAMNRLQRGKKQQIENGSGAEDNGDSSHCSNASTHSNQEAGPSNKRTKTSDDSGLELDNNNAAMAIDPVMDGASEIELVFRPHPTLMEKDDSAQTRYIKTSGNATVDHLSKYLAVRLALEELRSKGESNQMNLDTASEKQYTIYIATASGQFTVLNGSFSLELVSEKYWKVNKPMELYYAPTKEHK
T2 sequence (looked up) 2: B4 chain

[3] = molecular target: T3, Drosophila melanogaster histone H4 (D. melanogaster, UniProt P84040 1-103); assay: cryo-EM structure; vPRC1:Nuc; Nuc/vPRC1 ratio of 1:10 in UB buffer, 1 h at 4 °C; biotinylated nucleosomes bound to streptavidin-coated grids; settings: both partners purified
T3 construct: histone H4, D. melanogaster; Stood within the nucleosome; source: bought: The Histone Source (Colorado State University); in the reconstituted nucleosome

[4] = molecular target: T4, human RING1B, full length (human, UniProt Q99496 1-336); assay: SEC; RING1B and BMI1 coexpressed in insect cells from one vector, Ni-NTA (His tag on BMI1), tag cleavage, SEC (S200); settings: partners not purified
T4 construct: In the cryo-EM sample a subunit of vPRC1; residues 15-115 were built; source: High Five insect cells (baculovirus), coexpressed with BMI1, purified; not shown: twin strep-tag, N-terminal, cleaved
T4 sequence (looked up): T2 sequence (looked up) 1

Binder | binding result [1] | binding result [2] | binding result [3] | binding result [4]
B1 | binds | binds | – | –
B2 | – | binds | – | –
B3 | – | binds | – | –
B4 | – | – | binds | binds
